Measurements published in patent US20240116985A1, “STAPLED PEPTIDES AND METHODS THEREOF” (priority 2020, published 2024).
Starred links: 1 amine or outer side, 2 acyl side, 3 side chain; linkers in the order of their positions; H or OH if unused. Positions of bridges follow the written chain, without caps; N, C: chain ends. Non-standard residues stand in square brackets, D forms with d. Primed or numbered codes have the meaning given here. *: point of attachment. PyrS2″ = (S)-3-amino-1-((pent-4-en-1-yloxy)carbonyl)pyrrolidine-3-carboxylic acid (stapling residue), C=CCCCOC(=O)N1CC[C@@](N[*:1])(C(=O)[*:2])C1; B5(4) = 2,2-bis(4-pentenyl)glycine = 2-amino-2-(pent-4-en-1-yl)hept-6-enoic acid (stitching residue), C=CCCCC(CCCC=C)(N[*:1])C(=O)[*:2]; B5(5) = 2,2-bis(4-pentenyl)glycine, 2-amino-2-(pent-4-en-1-yl)hept-6-enoic acid (stitching residue), C=CCCCC(CCCC=C)(N[*:1])C(=O)[*:2]; B5(33) = 2-amino-2-(pent-4-en-1-yl)hept-6-enoic acid (bis-pentenylglycine, two olefin side chains), C=CCCCC(CCCC=C)(N[*:1])C(=O)[*:2]; PyrS2 = (S)-3-amino-1-((pent-4-en-1-yloxy)carbonyl)pyrrolidine-3-carboxylic acid, C=CCCCOC(=O)N1CC[C@@](N[*:1])(C(=O)[*:2])C1; (Me2diaminobutane)GlnR = N5-methyl-N5-(4-(methylamino)butyl)-L-glutamine, CN(CCCCN(C)[*:3])C(=O)CC[C@H](N[*:1])C(=O)[*:2]; 5IndA = (S)-2-amino-3-(2,3-dihydro-1H-inden-5-yl)propanoic acid, O=C([C@H](Cc1ccc2c(c1)CCC2)N[*:1])[*:2]; (NMe2)GlnR″ = [NMe2]GlnR: N5,N5-dimethyl-L-glutamine, CN(C)C(=O)CC[C@H](N[*:1])C(=O)[*:2]; B5(3) = 2,2-bis(4-pentenyl)glycine (stitching residue), C=CCCCC(CCCC=C)(N[*:1])C(=O)[*:2]; S10 = (S)-2-amino-2-methyldodec-11-enoic acid, C=CCCCCCCCC[C@](C)(N[*:1])C(=O)[*:2]; (NMe2)GlnR = N5,N5-dimethyl-L-glutamine, CN(C)C(=O)CC[C@H](N[*:1])C(=O)[*:2]; Phe(3-COOH) = N[C@@H](Cc1cccc(C(=O)O)c1)C(=O)O; Phe(2-CF3) = N[C@@H](Cc1ccccc1C(F)(F)F)C(=O)O; Phe(3,4-Me2) = Cc1ccc(C[C@H](N)C(=O)O)cc1C; Phe(3-Br) = N[C@@H](Cc1cccc(Br)c1)C(=O)O; Phe(2-Cl) = N[C@@H](Cc1ccccc1Cl)C(=O)O; 1Nal = N[C@@H](Cc1cccc2ccccc12)C(=O)O; 2Nal = N[C@@H](Cc1ccc2ccccc2c1)C(=O)O; Bta = N[C@@H](Cc1csc2ccccc12)C(=O)O; Isobutyloxycarbonyl = CC(C)COC(=O)*; αAllylPro = C=CC[C@@]1(C(=O)O)CCCN1; tBuAla = CC(C)(C)C[C@H](N)C(=O)O; 3Thi = N[C@@H](Cc1ccsc1)C(=O)O; S8 = C=CCCCCCC[C@](C)(N)C(=O)O; Propanoyl(3-OMe) = COCCC(=O)*; 2F3MeF″ = Phe derivative

B1: I-2299 (peptide)
peptide: Ac-[αAllylPro]D[tBuAla][B5(4)]D[Phe(3-COOH)][(NHEt)GlnR]AFL[PyrS2″][2F3MeF″][Bta][(NHEt)GlnR]-NH2
modifications: staple 1-4, 4-11
B2: I-2298 (peptide)
peptide: Ac-[αAllylPro]D[tBuAla][B5(4)]D[Phe(3-COOH)]QAFL[PyrS2″][Phe(2-CF3)][5IndA]A-NH2
modifications: staple 1-4, 4-11
B3: I-2310 (peptide)
peptide: Ac-[αAllylPro]D[tBuAla][B5(4)]D[Phe(3-COOH)]QAFV[PyrS2″][3Thi][2Nal]A-NH2
modifications: staple 1-4, 4-11
B4: I-2312 (peptide)
peptide: Ac-[αAllylPro]D[tBuAla][B5(4)]D[Phe(3-COOH)]QAFV[PyrS2″][3Thi][RbMe2NapA]A-NH2
modifications: staple 1-4, 4-11
B5: I-2314 (peptide)
peptide: Ac-[αAllylPro]D[tBuAla][B5(4)]D[Phe(3-COOH)]QAFV[PyrS2″][3Thi][SbMe2NapA]A-NH2
modifications: staple 1-4, 4-11
B6: I-2302 (peptide)
peptide: Ac-[αAllylPro]D[tBuAla][B5(4)]D[Phe(3-COOH)][(NHEt)GlnR]AFV[PyrS2″][3Thi][Bta]A-NH2
modifications: staple 1-4, 4-11
B7: I-2294 (peptide)
peptide: Ac-[αAllylPro]D[tBuAla][B5(4)]D[Phe(3-COOH)]QAFL[PyrS2][Phe(2-CF3)][Phe(3,4-Me2)]A-NH2
modifications: staple 1-4, 4-11
B8: I-2296 (peptide)
peptide: Ac-[αAllylPro]D[tBuAla][B5(4)]D[Phe(3-COOH)]QAFV[PyrS2][3Thi][5IndA]A-NH2
modifications: staple 1-4, 4-11
B9: I-2305 (peptide)
peptide: Isobutyloxycarbonyl-[αAllylPro]D[tBuAla][B5(4)]D[Phe(3-COOH)]AAFL[PyrS2″][Phe(2-Cl)][Bta]A-NH2
modifications: staple 1-4, 4-11
B10: I-2300 (peptide)
peptide: Ac-[αAllylPro]D[tBuAla][B5(4)]D[Phe(3-COOH)][(NMe2)GlnR″]AFL[PyrS2″][2F3MeF″][Bta][(NMe2)GlnR″]-NH2
modifications: staple 1-4, 4-11
B11: I-2307 (peptide)
peptide: Ac-[αAllylPro]D[tBuAla][B5(4)]D[Phe(3-COOH)]AAFL[PyrS2″][3Thi][Phe(3-Br)]Q-NH2
modifications: staple 1-4, 4-11
B12: I-2303 (peptide)
peptide: Ac-[αAllylPro]D[tBuAla][B5(4)]D[Phe(3-COOH)][(NMe2)GlnR]AFV[PyrS2″][3Thi][Bta]A-NH2
modifications: staple 1-4, 4-11
B13: I-2301 (peptide)
peptide: Ac-[αAllylPro]D[tBuAla][B5(4)]D[Phe(3-COOH)][(Me2diaminobutane)GlnR]AFV[PyrS2″][3Thi][Bta]A-NH2
modifications: staple 1-4, 4-11
B14: I-1263 (peptide)
peptide: Ac-[αAllylPro]D[tBuAla][B5(33)]DTAAFT[PyrS2]F[Bta]S-NH2
modifications: staple 1-4, 4-11
B15: I-1264 (peptide)
peptide: Ac-[αAllylPro]D[tBuAla][B5(33)]DTLAFT[PyrS2]F[Bta]S-NH2
modifications: staple 1-4, 4-11
B16: I-1262 (peptide)
peptide: Ac-[αAllylPro]D[tBuAla][B5(33)]DDAAFT[S10][Phe(2-Cl)][Bta]T-NH2
modifications: staple 1-4, 4-11
B17: I-1267 (peptide)
peptide: Ac-[αAllylPro]D[tBuAla][B5(5)]DTAA[2Nal]T[PyrS2″]F[Bta]S-NH2
modifications: staple 1-4, 4-11
B18: I-1261 (peptide)
peptide: {Propanoyl(3-OMe)}-[αAllylPro]D[tBuAla][B5(33)]DDAAFT[S8][Phe(2-Cl)][Bta]Q-NH2
modifications: staple 1-4, 4-11
B19: I-1266 (peptide)
peptide: Ac-[αAllylPro]D[tBuAla][B5(5)]DTAA[1Nal]T[PyrS2″]F[Bta]S-NH2
modifications: staple 1-4, 4-11
B20: I-1265 (peptide)
peptide: Ac-[αAllylPro]D[tBuAla][B5(33)]DTALFT[PyrS2]F[Bta]S-NH2
modifications: staple 1-4, 4-11
B21: I-2402 (peptide)
peptide: propiolyl-[αAllylPro]D[tBuAla][B5(5)]DDAAFQ[PyrS2][3Thi][Bta]H-NH2
modifications: staple 1-4, 4-11
B22: I-2396 (peptide)
peptide: Ac-[αAllylPro]D[tBuAla][B5(5)]D[Phe(3-COOH)]AAFL[PyrS2][Phe(2-CF3)][Bta]QL[dL]-NH2
modifications: staple 1-4, 4-11
B23: I-2397 (peptide)
peptide: Ac-[αAllylPro]D[tBuAla][B5(5)]D[Phe(3-COOH)]AAFL[PyrS2][Phe(2-CF3)][Bta]QL[dT]-NH2
modifications: staple 1-4, 4-11
B24: I-2400 (peptide)
peptide: Ac-[αAllylPro]D[tBuAla][B5(5)]D[Phe(3-COOH)]AAFL[PyrS2][Phe(2-CF3)][Bta]QFA-NH2
modifications: staple 1-4, 4-11
B25: I-2399 (peptide)
peptide: Ac-[αAllylPro]D[tBuAla][B5(5)]D[Phe(3-COOH)]AAFL[PyrS2][Phe(2-CF3)][Bta]QAA-NH2
modifications: staple 1-4, 4-11
B26: I-2401 (peptide)
peptide: Ac-[αAllylPro]D[tBuAla][B5(5)]D[Phe(3-COOH)]AAFL[PyrS2][Phe(2-CF3)][Bta]QVA-NH2
modifications: staple 1-4, 4-11

Target: Bcat-Halo (UniProt P35222)
Assay: NanoBRET Abs IC50, HEK293 cells, Bcat-Halo / TCF4-Luc

Chain of Bcat-Halo (P35222 whole entry): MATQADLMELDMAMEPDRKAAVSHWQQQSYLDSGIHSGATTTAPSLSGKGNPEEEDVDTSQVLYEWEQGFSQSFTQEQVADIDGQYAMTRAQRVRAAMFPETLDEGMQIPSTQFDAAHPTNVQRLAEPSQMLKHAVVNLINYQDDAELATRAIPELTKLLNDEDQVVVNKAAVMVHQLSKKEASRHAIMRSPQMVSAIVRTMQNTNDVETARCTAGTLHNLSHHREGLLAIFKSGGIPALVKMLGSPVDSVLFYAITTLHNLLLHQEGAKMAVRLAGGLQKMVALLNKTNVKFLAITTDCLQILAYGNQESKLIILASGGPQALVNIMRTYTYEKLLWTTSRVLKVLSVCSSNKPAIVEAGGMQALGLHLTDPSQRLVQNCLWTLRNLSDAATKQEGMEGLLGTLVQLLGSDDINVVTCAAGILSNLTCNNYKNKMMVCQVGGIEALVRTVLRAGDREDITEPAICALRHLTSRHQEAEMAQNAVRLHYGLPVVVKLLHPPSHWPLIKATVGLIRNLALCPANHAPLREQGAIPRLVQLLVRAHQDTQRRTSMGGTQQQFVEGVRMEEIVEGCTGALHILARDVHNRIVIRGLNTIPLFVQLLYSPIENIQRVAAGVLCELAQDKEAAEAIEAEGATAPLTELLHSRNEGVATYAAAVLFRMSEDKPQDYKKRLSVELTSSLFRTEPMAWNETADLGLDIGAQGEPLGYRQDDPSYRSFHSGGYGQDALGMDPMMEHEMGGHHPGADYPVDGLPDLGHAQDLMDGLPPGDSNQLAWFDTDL

| IC50 | Binder |
| --- | --- |
| 5200 nM | B1 |
| 4600 nM | B2 |
| 8900 nM | B3 |
| 5200 nM | B4 |
| > 20000 nM | B5 |
| 2500 nM | B6 |
| 4600 nM | B7 |
| 5100 nM | B8 |
| > 20000 nM | B9 |
| 1200 nM | B10 |
| 8900 nM | B11 |
| 1200 nM | B12 |
| > 20000 nM | B13 |

Target: full-length beta-Catenin (Uniprot ID P35222) (Homo sapiens (Human)) (UniProt P35222)
Assay: fluorescence polarization competition, competitor 5FAM-TCF4 10-53
Target sequence in this assay (P35222 2-781 limits assumed): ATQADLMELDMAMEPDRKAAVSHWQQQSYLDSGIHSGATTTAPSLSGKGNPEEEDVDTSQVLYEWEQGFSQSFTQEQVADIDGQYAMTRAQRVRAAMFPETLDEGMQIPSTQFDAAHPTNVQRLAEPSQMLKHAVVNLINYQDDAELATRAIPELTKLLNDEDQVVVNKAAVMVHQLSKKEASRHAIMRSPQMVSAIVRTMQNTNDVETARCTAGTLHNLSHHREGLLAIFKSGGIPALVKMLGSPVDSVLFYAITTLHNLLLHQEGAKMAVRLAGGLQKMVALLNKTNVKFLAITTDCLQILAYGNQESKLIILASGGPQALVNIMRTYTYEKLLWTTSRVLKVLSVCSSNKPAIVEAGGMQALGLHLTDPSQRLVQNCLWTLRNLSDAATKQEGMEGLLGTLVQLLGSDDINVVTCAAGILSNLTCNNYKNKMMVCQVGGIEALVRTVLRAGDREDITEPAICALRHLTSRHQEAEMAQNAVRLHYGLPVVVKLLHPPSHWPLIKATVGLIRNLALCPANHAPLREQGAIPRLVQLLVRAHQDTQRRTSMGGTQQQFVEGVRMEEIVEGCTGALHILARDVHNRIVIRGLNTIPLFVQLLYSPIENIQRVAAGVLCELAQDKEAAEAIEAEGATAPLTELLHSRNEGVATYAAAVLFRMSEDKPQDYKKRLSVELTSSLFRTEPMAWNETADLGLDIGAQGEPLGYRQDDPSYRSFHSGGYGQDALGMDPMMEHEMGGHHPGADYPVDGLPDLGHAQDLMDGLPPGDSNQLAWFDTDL

| IC50 | Binder |
| --- | --- |
| 43 nM | B14 |
| 157 nM | B15 |
| 1120 nM | B16 |
| 181 nM | B17 |
| 31 nM | B18 |
| 755 nM | B19 |
| 152 nM | B20 |

Target: B-cat-Halo (beta-catenin HaloTag NanoBRET construct expressed in HEK293 cells) (UniProt P35222)
Assay: NanoBRET in HEK293 cells, Bcat-Halo / TCF4-Luc (competitor TCF4-Luc); absolute IC50

Chain of B-cat-Halo (beta-catenin HaloTag NanoBRET construct expressed in HEK293 cells) (P35222 whole entry): as the sequence (P35222 whole entry) above

| IC50 | Binder |
| --- | --- |
| > 20000 nM | B21 |
| 8300 nM | B22 |
| 7800 nM | B23 |
| 2500 nM | B24 |
| 2800 nM | B25 |
| 4400 nM | B26 |

Target: full-length beta-Catenin (Uniprot ID P35222) (Homo sapiens (Human)) (UniProt P35222)
Assay: fluorescence polarization competition; full-length beta-catenin + 5FAM-TCF4(10-53) probe
Target sequence in this assay (P35222 whole entry, one chain of several): as the sequence (P35222 whole entry) above

| EC50 | Binder |
| --- | --- |
| 43 nM | B14 |
| 157 nM | B15 |
| 1120 nM | B16 |
| 181 nM | B17 |
| 31 nM | B18 |
| 755 nM | B19 |
| 152 nM | B20 |

Target: full-length beta-Catenin (Uniprot ID P35222) (Homo sapiens (Human)) (UniProt P35222)
Assay: fluorescence polarization competition against 5FAM-TCF4(10-53), full-length beta-catenin
Target sequence in this assay (P35222 whole entry, one chain of several): as the sequence (P35222 whole entry) above

| IC50 | Binder |
| --- | --- |
| 7 nM | B1 |
| 8 nM | B2 |
| 18 nM | B3 |
| 5 nM | B4 |
| 48 nM | B5 |
| 5 nM | B6 |
| 16 nM | B7 |
| 6 nM | B8 |
| 65 nM | B9 |
| 6 nM | B10 |
| 16 nM | B11 |
| 5 nM | B12 |
| 5 nM | B13 |

Target: full-length beta-Catenin (Uniprot ID P35222) (Homo sapiens (Human)) (UniProt P35222)
Assay: fluorescence polarization competition; full-length beta-catenin, competitor 5FAM-TCF4(10-53) probe
Target sequence in this assay (P35222 2-781 limits assumed): as the sequence (P35222 2-781 limits assumed) above

| IC50 | Binder |
| --- | --- |
| 16 nM | B21 |
| 187 nM | B22 |
| 53 nM | B23 |
| 142 nM | B24 |
| 17 nM | B25 |
| 37 nM | B26 |
